Source: PMC5636616, “Studies on the Interaction of the Histone Demethylase KDM5B with Tricarboxylic Acid Cycle Intermediates” (Journal of Molecular Biology, 2017)
“And” between values parts separate entries of the source, which are not always exact repeats. Identical values can stand only once.

Substrate: O=C(O)CCC(=O)C(=O)O
Test: purified protein, by the assay type
Conditions: pH 7.5, 25.0 °C

B1: KDM5B (Homo sapiens) (protein)
chain: MEAATTLHPGPRPALPLGGPGPLGEFLPPPECPVFEPSWEEFADPFAFIHKIRPIAEQTGICKVRPPPDWQPPFACDVDKLHFTPRIQRLNELEAQTRVKLNFLDQIAKYWELQGSTLKIPHVERKILDLFQLNKLVAEEGGFAVVCKDRKWTKIATKMGFAPGKAVGSHIRGHYERILNPYNLFLSGDSLRCLQKPNLTTDTKDKEYKPHDIPQRQSVQPSETCPPARRAKRMRAEAMNIKIEPEETTEARTHNLRRRMGCPTPKCENEKEMKSSIKQEPIERKDYIVENEKEKPKSRSKKATNAVDLYVCLLCGSGNDEDRLLLCDGCDDSYHTFCLIPPLHDVPKGDWRCPKCLAQECSKPQEAFGFEQAARDYTLRTFGEMADAFKSDYFNMPVHMVPTELVEKEFWRLVSTIEEDVTVEYGADIASKEFGSGFPVRDGKIKLSPEEEEYLDSGWNLNNMPVMEQSVLAHITADICGMKLPWLYVGMCFSSFCWHIEDHWSYSINYLHWGEPKTWYGVPGYAAEQLENVMKKLAPELFVSQPDLLHQLVTIMNPNTLMTHEVPVYRTNQCAGEFVITFPRAYHSGFNQGFNFAEAVNFCTVDWLPLGRQCVEHYRLLHRYCVFSHDEMICKMASKADVLDVVVASTVQKDMAIMIEDEKALRETVRKLGVIDSERMDFELLPDDERQCVKCKTTCFMSAISCSCKPGLLVCLHHVKELCSCPPYKYKLRYRYTLDDLYPMMNALKLRAESYNEWALNVNEALEAKINKKKSLVSFKALIEESEMKKFPDNDLLRHLRLVTQDAEKCASVAQQLLNGKR
With B1 as the protein, how does the Km (other: 0 μM oxaloacetate) read?
The Km was 5.0 µM.

And the Km (other: 0 μM succinate)?
The Km was 3.4 µM.

What about the Km (other: KDM5B(1–822), no inhibitor, 5 μM H3K4me2(1–21)) of the same protein?
The Km was 3 µM and 2.6 ± 0.6 µM.

What about the Km (other: Table S1, succinate data set, competitive inhibition model) of the same protein?
Its Km is 3.01 µM.

What about the Km (other: Table S2, oxaloacetate data set, competitive inhibition model) of the same protein?
The Km was 5.91 µM.
